Columns and labels:
TR7-Fc fusion protein [1] = biological target: T1, TR7-Fc fusion protein (human, UniProt O14763 52-184); test: competition ELISA, inhibition of biotinylated TRAIL binding to captured TR7-Fc; first of two lots
T1 construct: also called TR7-Fc receptor; TRAILR2; not shown: Fc region
Protocol: (§1) Goat anti-human Fc is diluted to 0.1 micrograms/ml in coating buffer. An Immulon 4 microplate is coated with 100 microliters per well of the Goat anti-human Fc solution and incubated overnight at 4° C. The coating solution is decanted from the plate, and blocking solution is dispensed at 200 microliters per well. The plate is incubated at room temperature for 1 hour. After the 1 hour incubation period, the blocking solution is decanted from the plate and 1 microgram/mL of TR7-Fc is dispensed at 100 microliters/well and incubated for 2 hours at room temperature. After the incubation, the plate is washed five times manually using a Wheaton manifold.
(§2) Antibodies corresponding to scFvs of the present invention are (previously) prepared in a low binding dilution plate using diluent. The antibodies are prepared in duplicate and are diluted from the stock concentration with 2.5 fold dilutions for the 7 subsequent wells. If a purified form of the antibody is available, the starting concentration is 5 micrograms/mL. The positive control (TR7-Fc) is diluted from 5 micrograms/mL. 100 microliters is transferred into the ELISA plate and pre-incubated for 30 minutes at room temperature. […]
(§3) After the one-hour incubation, the plate is decanted and washed with PBST five times and blotted. […] The plate is immediately read at 450 nm using the spectrometer from Molecular Devices.

TR7-Fc fusion protein [2] = biological target: T1, TR7-Fc fusion protein; test: competition ELISA, inhibition of biotinylated TRAIL binding to captured TR7-Fc; second of two lots
Protocol: as §1, §2, §3

TR7-Fc fusion protein [3] = biological target: T1, TR7-Fc fusion protein; test: SPR (BIAcore 2000), TR7-Fc amine-coupled on CM5 chip, 1:1 Langmuir model, mean of three experiments; first lot
Protocol: (§4) TR7-Fc and TR2-Fc were immobilized on individual flow cells of a BIAcore CM5 sensor chip (BIAcore, Cat # BR-1000-14). Amine coupling (BIAcore, Cat # BR-1000-50) was used to covalently bind each receptor to the dextran matrix on the sensor chip. The optimal pH for this coupling was analyzed using preconcentration experiments ranging from pH 4-7 and was determined to be pH 4.0 based on the slope of the binding. The actual coupling was performed using the manual injection mode. A target level of 200 relative units (RU) was set as the goal for both flow cells. A response of 1000 RU correlates to a change in surface concentration of about 1 ng/mm² for proteins. The molecular weight of the TR7 and TR2 fusion proteins was nearly identical. The concentration of both receptors for immobilization was 5 μg/ml in 10 mM acetate, pH 4.0 (BIAcore, Cat # BR-1003-49). The entire experiment was performed at a flow rate of 5 μL/min. Contact time for the N-ethyl-N′-(3-dimethylaminoprolpyl)carbodiimide hydrochloride/Ethanolamine hydrochloride-NaOH, pH 8.5 (EDC/NHS) injection was 3 minutes. The ethanolamine was injected for 3 minutes.
(§5) Analysis of CM005G08 kinetics was performed using the BIAcore 2000 instrument with the 2000 control software, version 3.1.1. […] The off rate of CM005G08 was determined by washing the complex in the presence of HBS-EP buffer for 10 minutes. […]

TR7-Fc fusion protein [4] = biological target: T1, TR7-Fc fusion protein; test: SPR (BIAcore 2000), TR7-Fc amine-coupled on CM5 chip, 1:1 Langmuir model, mean of three experiments; second lot
Protocol: as §4, §5

TR7-Fc fusion protein [5] = biological target: T1, TR7-Fc fusion protein; test: competition ELISA, inhibition of biotinylated TRAIL binding to captured TR7-Fc; unlabelled TRAIL as competitor
Protocol: as §1, §2, §3

| Binder | IC50 (TR7-Fc fusion protein [1]) [nM] | IC50 (TR7-Fc fusion protein [2]) [nM] | Kd (TR7-Fc fusion protein [3]) [nM] | koff (TR7-Fc fusion protein [3]) [s⁻¹] | Kd (TR7-Fc fusion protein [4]) [nM] | koff (TR7-Fc fusion protein [4]) [s⁻¹] | IC50 (TR7-Fc fusion protein [5]) [nM] |
| --- | --- | --- | --- | --- | --- | --- | --- |
| whole IgG1 antibody comprising the VH and VL domains of the CM005G08 scFv (antibody, V domains shown, 3.75 ug/mL = 25 nM implies a whole IgG; also called CM005G08 (IgG1 format); anti-TR7 antibody) VH: EVQLVQSGGGVERPGGSLRLSCAASGFTFDDYGMSWVRQAPGKGLEWVSGINWNGGSTGYADSVKGRVTISRDNAKNSLYLQMNSLRAEDTAVYYCAKILGAGRGWYFDLWGKGTTVTVSS VL: SSELTQDPAVSVALGQTVRITCQGDSLRSYYASWYQQKPGQAPVLVIYGKNNRPSGIPDRFSGSSSGNTASLTITGAQAEDEADYYCNSRDSSGNHVVFGGGTKLTVLG | 5.3 | 6.89 | 0.25 | 0.00266 | 0.33 | 0.00268 | – |
| TRAIL (ligand, also called soluble TRAIL ligand; AIM-I) TSEETISTVQEKQQNISPLVRERGPQRVAAHITGTRGRSNTLSSPNSKNEKALGRKINSWESSRSGHSFLSNLHLRNGELVIHEKGFYYIYSQTYFRFQEEIKENTKNDKQMVQYIYKYTSYPDPILLMKSARNSCWSKDAEYGLYSIYQGGIFELKENDRIFVSVTNEHLIDMDHEASFFGAFLVG | – | – | – | – | – | – | 1.77 |

— patent US20030180296A1 (Human Genome Sciences, published 2003)
